The target in test [1] is Remicade Fab fragment (sourced from the European Union market) (mouse/human chimeric). As to the kind of experiment: AUC.
Test [2] concerns the target PF-06438179/GP1111 Fab fragment (mouse/human chimeric). As to the kind of experiment: AUC.

pKd: −log10 of the molar value.

What is called pKd is the negative decadic logarithm of the Kd, by convention in mol/L. Regarding “Remicade Fab fragment (sourced from the European Union market)”, the pKd in test [1] is 4.64.

A word on the stoichiometry N: it is the number of molecules, sites or subunits per partner or assembly. PF-06438179/GP1111 Fab fragment showed a stoichiometry N in test [2] of 2.

(Values after paper PMC6985046.)
